± gives the uncertainty stated by the source.

This data set can be described thus: amyloid nucleation score (Sup35N fusion, yeast selection) (log enrichment); library NNK3; higher = more nucleation; inactive = no reads after selection. In outline: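 Plasmid inserts were Illumina-sequenced at input and output from psi-negative yeast expressing Sup35N fused to peptides of 20 random codons. The yeast were induced with 100 μM copper sulfate for 24 hours and grown 7 days at 30°C on medium lacking adenine and uracil, and sequences with under 100 input reads were excluded. Nucleation score is the DiMSum log enrichment of output over input reads, centred on the mode score of non-aggregating sequences.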
With YFLRREQLYNLRKGK, the amyloid nucleation score entry is “inactive”.

Substance YFLYLFRSVQCMLCHALNFN had an amyloid nucleation score of 0.586 ± 0.15.

On to YFNLSRIMLNELMCLVIIRQ, for which the amyloid nucleation score entry was “inactive”.

Turning to YFPGGTLDY, the amyloid nucleation score entry is “inactive”.

Regarding YFSRMVKVRSNI, the amyloid nucleation score result was “inactive”.

As to YFWEASGFHFIRLVTTASTQ, the amyloid nucleation score result was “inactive”.

For the substance YFYSHRYI, the amyloid nucleation score entry was “inactive”.

For the substance YGCKANSPLL, the amyloid nucleation score entry was “inactive”.

As to YGCRINLIDRYALKYCVTED, the amyloid nucleation score result was “inactive”.

Regarding YGGFLKFSRYGIGRYIHLQL, the amyloid nucleation score result was “inactive”.

On to YGKQVLWN, for which the amyloid nucleation score result was “inactive”.

As to YGLFGCLTSVWACRGCYGVV, the amyloid nucleation score result was “inactive”.

The substance YGLSFHDLYGCCLRLGIGMD came in with an amyloid nucleation score of 1.63 ± 0.081.

On to YGQGSGGIGRRVAGQDCNLI, for which the amyloid nucleation score result was “inactive”.

YGRLCDALKGSWYCSIYHGS came in with an amyloid nucleation score of 1.79 ± 0.074.

For the substance YGSIIV, the amyloid nucleation score entry was “inactive”.

As for YGSKWTLKVFWIMMCFDELP, the amyloid nucleation score result was “inactive”.

As to YGYVLTSTVGVILVYWSYSC, the amyloid nucleation score result is “inactive”.

YHCVRLFRVPMTISRGDAQK: the amyloid nucleation score was -0.271 ± 0.59.

For the substance YHLLFIVKAYIGVILNFLRS, the amyloid nucleation score entry was “inactive”.

Take YIARCVVTSLVLNKTCMRIY: the amyloid nucleation score result is “inactive”.

Substance YICTNNLTYNSMMQIFSKIM registered an amyloid nucleation score of 0.394 ± 0.33.

In the case of YICVMWMYSCKLSLPMWHPR, the amyloid nucleation score entry is “inactive”.

On to YIEILE, for which the amyloid nucleation score result was “inactive”.

Turning to YIETISPFLCGCYSIFSPMI, the amyloid nucleation score turned out to be 2.8 ± 0.084.

YIEWLDFR: the amyloid nucleation score entry is “inactive”.

Regarding YIFDMSTGQDSMVY, the amyloid nucleation score result is “inactive”.

As for YIFQICRFGIYYVRSVYTTY, the amyloid nucleation score result is “inactive”.

Consider YIGFGGDCSVSAFVTCQLGF, for which the amyloid nucleation score entry was “inactive”.

Regarding YIINARPYVVVTDGLKDETA, the amyloid nucleation score entry is “inactive”.

As to YINHSSSTA, the amyloid nucleation score entry was “inactive”.

Substance YINLFGKWA had an amyloid nucleation score of 1.53 ± 0.1.

On to YINLVFQNCAVDGRSSKGYW, for which the amyloid nucleation score worked out at 2.67 ± 0.081.

YIPVSTFM: the amyloid nucleation score is -0.135 ± 0.6.

YISEWSLSP displayed an amyloid nucleation score of 0.909 ± 0.13.

Substance YISFFGGFANNGYCWWICAS showed an amyloid nucleation score of 1.81 ± 0.069.

For YITVRR, the amyloid nucleation score is -0.297 ± 1.1.

As to YIVNLGKFKCQNLMRSCRLK, the amyloid nucleation score was found to be 1.07 ± 0.12.

On to YKDRR, for which the amyloid nucleation score entry is “inactive”.

Regarding YKFIRFFSSMT, the amyloid nucleation score entry was “inactive”.

Take YKFLLFFFYSISAFGNDSCD: the amyloid nucleation score result was “inactive”.

Turning to YKIRFSLYVEHSVVLYVQY, the amyloid nucleation score result was “inactive”.

Turning to YKLKLIKEFCIGIRC, the amyloid nucleation score entry was “inactive”.

Regarding YKSNLLSYGALLISDFVLVR, the amyloid nucleation score is -0.108 ± 0.63.

As for YKSSNRSFFGIMANQPRLGC, the amyloid nucleation score entry was “inactive”.

In the case of YLASEVYRV, the amyloid nucleation score result was “inactive”.

As for YLCLWCVEQLMYCRPRRLEE, the amyloid nucleation score entry was “inactive”.

With YLGCSINLGTEDIIYAESEH, the amyloid nucleation score entry was “inactive”.

As for YLGFFTAYA, the amyloid nucleation score result was “inactive”.

With YLIDVGL, the amyloid nucleation score entry is “inactive”.

On to YLLFMYFLLSSCCSLPALPM, for which the amyloid nucleation score is 1.4 ± 0.12.

As for YLNISILFNCVWDKVFFRYH, the amyloid nucleation score result was “inactive”.

As to YLNRLCLNTNISRAVRCY, the amyloid nucleation score result was “inactive”.

With YLNSDRSYEMDTFRFGYLLY, the amyloid nucleation score entry is “inactive”.

For YLRDF, the amyloid nucleation score result was “inactive”.

Take YLRGY: the amyloid nucleation score entry is “inactive”.

Regarding YLSSIW, the amyloid nucleation score entry was “inactive”.

As to YLTNNLFRFLEYR, the amyloid nucleation score entry is “inactive”.

With YLTVCRGRNTEGYGWEVNS, the amyloid nucleation score entry was “inactive”.

As for YLVGCWNYESKN, the amyloid nucleation score came out at 0.234 ± 0.25.

As for YLVWVFPEWPC, the amyloid nucleation score turned out to be 1.39 ± 0.13.

For YLYLWSFCMSMVGFSIYRES, the amyloid nucleation score entry was “inactive”.

For the substance YMAVKRSWSNSMTMIHLNSV, the amyloid nucleation score entry is “inactive”.

For YMESVARNSLRVSDCNAK, the amyloid nucleation score is 0.7 ± 0.14.

Turning to YMIDPYKEEVLPP, the amyloid nucleation score result is “inactive”.

Consider YMLCC, for which the amyloid nucleation score entry was “inactive”.

On to YMLMGMVLRDRDRT, for which the amyloid nucleation score worked out at 1.69 ± 0.088.

With YMRDCYSNSGWNIYRSKRLS, the amyloid nucleation score result is “inactive”.

In turn, YMSFIYGSKR displayed an amyloid nucleation score of 1.78 ± 0.07.

For the substance YMSRKPV, the amyloid nucleation score result is “inactive”.

As for YNCFTHSPWRKH, the amyloid nucleation score result was “inactive”.

Take YNEHLQLAVWRYALTVGKVW: the amyloid nucleation score entry was “inactive”.

In turn, YNMFACGVCTLFKVGKANKF had an amyloid nucleation score of 2.96 ± 0.074.

For the substance YNNCYRCEN, the amyloid nucleation score entry was “inactive”.

For YNRLNRL, the amyloid nucleation score entry was “inactive”.

Turning to YNSRDDSIKFFFVRSCILTY, the amyloid nucleation score result was “inactive”.

In turn, YNSSYFYMMCPFLSSFSPFS registered an amyloid nucleation score of 2.81 ± 0.067.

As for YNVTFQSPVTSWDNHLIMA, the amyloid nucleation score entry was “inactive”.

For the substance YPHLMK, the amyloid nucleation score was found to be 1.54 ± 0.12.

For the substance YPNMWLDEYRMVFAYYLPCG, the amyloid nucleation score result was “inactive”.

Regarding YPWGEGNGYTCGV, the amyloid nucleation score entry was “inactive”.

For YQFFDASLIAR, the amyloid nucleation score entry is “inactive”.

As for YQIDQSLCNWCYLGGSWFIA, the amyloid nucleation score turned out to be 2.39 ± 0.072.

YQSGTLWCQCIWFKMRWRVH: the amyloid nucleation score result is “inactive”.

YQVVVGNFCLLHSVCI gave an amyloid nucleation score of 0.124 ± 0.38.

Regarding YRDTICPYETAREDMNYLLG, the amyloid nucleation score entry was “inactive”.

In turn, YRESDKVTFWLYLSRVDDLD displayed an amyloid nucleation score of 2.06 ± 0.083.

On to YRFFVKYMLLIYLINFNIFL, for which the amyloid nucleation score turned out to be 0.057 ± 0.6.

Turning to YRFTRKDSPSSKVKMISNSW, the amyloid nucleation score entry was “inactive”.

In the case of YRHICKYCFGQPVGHH, the amyloid nucleation score was -1.1 ± 1.9.

In the case of YRNMFQPRRNEAARQQLSST, the amyloid nucleation score result is “inactive”.

Consider YRPFWSA, for which the amyloid nucleation score entry is “inactive”.

Turning to YRRYWLSGRSFRADFIDNKT, the amyloid nucleation score entry is “inactive”.

Consider YRSFSSKDVSKL, for which the amyloid nucleation score result is “inactive”.

As for YRTARVSG, the amyloid nucleation score result is “inactive”.

With YRTDDERCDMTTVLYSYMEY, the amyloid nucleation score result is “inactive”.

As for YRVSEELTLLY, the amyloid nucleation score result was “inactive”.

Turning to YRWYQINSGSYLYLASRWCW, the amyloid nucleation score entry was “inactive”.

As for YRYMVRITCGCFHAVNDT, the amyloid nucleation score was 1.19 ± 0.14.

On to YRYYCWNCCELGIDGTMWVA, for which the amyloid nucleation score was -0.526 ± 0.45.

For the origin of these results see the supplement of paper PMC12042874.
